Patent EP4748847A1, “PEPTIDE COMPLEX HAVING VEGFR -2 AGONIST ACTIVITY” (Peptidream Inc, priority 2023, dated 2025)
*1 amine or outer side, *2 acyl side, *3 side chain or, on linkers, in order; H or OH if unused. Bridges are numbered along the chain shown (N, C = ends). Primed or numbered codes have the meaning given here. Where no end group is shown, it is not given here. [ ]: non-standard residue; d: D form. CO(CH2)2(OCH2CH2)17CO = O=C(CCOCCOCCOCCOCCOCCOCCOCCOCCOCCOCCOCCOCCOCCOCCOCCOCCOCCC(=O)[*:2])[*:1]; Met(O2) = CS(=O)(=O)CC[C@H](N)C(=O)O; hTyr = N[C@@H](CCc1ccc(O)cc1)C(=O)O; Hyp = O=C(O)[C@@H]1C[C@@H](O)CN1; hArg = N=C(N)NCCCC[C@H](N)C(=O)O; hPhe = N[C@@H](CCc1ccccc1)C(=O)O; Chg = N[C@H](C(=O)O)C1CCCCC1; Tle = CC(C)(C)[C@H](N)C(=O)O; F4aao = not defined here; Ahp′ = not defined here; H4Py = not defined here; Atb = not defined here; F4C = not defined here; Yph = not defined here

target: T1, VEGFR-2 (human, UniProt P35968 20-1356); assay: cell-based or functional assay
T1 sequence (P35968 20-1356): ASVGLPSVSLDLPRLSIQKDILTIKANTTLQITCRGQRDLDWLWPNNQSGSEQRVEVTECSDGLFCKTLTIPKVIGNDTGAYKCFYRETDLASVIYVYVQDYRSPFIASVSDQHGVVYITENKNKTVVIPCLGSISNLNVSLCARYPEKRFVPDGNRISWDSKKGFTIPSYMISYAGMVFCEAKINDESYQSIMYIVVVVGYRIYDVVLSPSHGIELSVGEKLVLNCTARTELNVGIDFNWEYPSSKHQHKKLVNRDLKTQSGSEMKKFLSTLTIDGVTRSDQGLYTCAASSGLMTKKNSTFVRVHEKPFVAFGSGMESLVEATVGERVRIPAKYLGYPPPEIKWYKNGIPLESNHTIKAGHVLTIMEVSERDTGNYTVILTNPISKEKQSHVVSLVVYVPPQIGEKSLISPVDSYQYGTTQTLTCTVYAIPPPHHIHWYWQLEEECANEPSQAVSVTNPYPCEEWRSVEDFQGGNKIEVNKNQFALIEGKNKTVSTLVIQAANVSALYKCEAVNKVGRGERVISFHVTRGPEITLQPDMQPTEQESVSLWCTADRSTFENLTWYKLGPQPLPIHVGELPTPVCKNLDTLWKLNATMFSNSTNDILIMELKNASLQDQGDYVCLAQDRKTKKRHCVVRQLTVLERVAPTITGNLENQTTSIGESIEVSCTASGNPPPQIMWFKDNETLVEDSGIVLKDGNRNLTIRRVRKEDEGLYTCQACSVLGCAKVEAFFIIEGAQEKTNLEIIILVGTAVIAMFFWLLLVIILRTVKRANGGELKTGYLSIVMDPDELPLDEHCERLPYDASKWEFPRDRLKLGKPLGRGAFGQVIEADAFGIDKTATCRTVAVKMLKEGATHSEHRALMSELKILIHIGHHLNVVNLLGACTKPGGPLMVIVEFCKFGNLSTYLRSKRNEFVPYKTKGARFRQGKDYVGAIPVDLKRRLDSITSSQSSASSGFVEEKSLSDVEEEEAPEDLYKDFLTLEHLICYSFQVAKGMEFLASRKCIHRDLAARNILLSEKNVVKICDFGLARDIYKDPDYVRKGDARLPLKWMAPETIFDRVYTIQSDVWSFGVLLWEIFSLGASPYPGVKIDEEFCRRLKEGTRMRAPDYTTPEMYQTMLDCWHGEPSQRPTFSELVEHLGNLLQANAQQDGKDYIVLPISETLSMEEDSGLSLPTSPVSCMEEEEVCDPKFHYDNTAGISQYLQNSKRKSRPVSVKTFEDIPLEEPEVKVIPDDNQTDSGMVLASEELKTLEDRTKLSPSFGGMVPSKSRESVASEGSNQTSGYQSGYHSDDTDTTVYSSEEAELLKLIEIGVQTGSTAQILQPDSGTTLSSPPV

| Binder | pERK Assay Results (AlphaLISA p-Erk1/2, HUVEC) |
| --- | --- |
| {CH2CO}-WWVDVQDDLYFVDCG (thioether N-14; also: dimer: Gly15 C-terminus joined to second copy by K-cPEG17c-K) [Peptide complex Dimer Structure No. 12] | < 50 % activity at 100 nM |
| {CH2CO}-WWVDVQDDLY[Bph]VDCG (thioether N-14; also: dimer: C-termini joined by PEG12c-K-PEG12c linker) [Peptide complex Dimer Structure No. 8] | < 50 % activity at 100 nM |
| {CH2CO}-WWVD[Tle]KDDLYFVDCG-NH2 (thioether N-14; not fully specified (residue 6); also: homodimer: Lys6 joined to Lys6 of second copy by cPEG17c (Linker Structure No. 4)) [Peptide complex Dimer Structure No. 15] | ≥ 50 % activity at 100 nM |
| {CH2CO}-WWVDVWDDLYFVDCG (thioether N-14; also: dimer joined at Gly15 C-termini by PEG12c-K-PEG12c) [Peptide complex Dimer Structure No. 3] | ≥ 50 % activity at 10 nM |
| {CH2CO}-WWVDVQDDLYFVSCG (thioether N-14; also: dimer: Gly15 C-terminus joined to second copy by PEG12c-K-PEG12c) [Peptide complex Dimer Structure No. 11] | < 50 % activity at 100 nM |
| {CH2CO}-WWVDVQDDLYFVACG (thioether N-14; also: dimer: Gly15 C-terminus joined to second copy by PEG12c-K-PEG12c) [Peptide complex Dimer Structure No. 10] | < 50 % activity at 100 nM |
| {CH2CO}-WWVDVQGDLYFVDCG (thioether N-14; also: dimer: C-termini joined by PEG12c-K-PEG12c linker) [Peptide complex Dimer Structure No. 7] | ≥ 50 % activity at 100 nM |
| {CH2CO}-WWVDV[F4COO]DDLYFVDCG (thioether N-14; also: dimer: C-termini joined by PEG12c-K-PEG12c linker) [Peptide complex Dimer Structure No. 6] | ≥ 50 % activity at 100 nM |
| {CH2CO}-WWVDV[hPhe]DDLYFVDCG (thioether N-14; also: dimer: C-terminus joined to second copy by PEG12c-K-PEG12c) [Peptide complex Dimer Structure No. 4] | ≥ 50 % activity at 10 nM |
| {CH2CO}-WWVDVQDDLYF[hPhe]DCG (thioether N-14; also: dimer: C-termini joined by PEG12c-K-PEG12c linker) [Peptide complex Dimer Structure No. 9] | < 50 % activity at 100 nM |

target: T1, VEGFR-2; assay: cell-based or functional assay; remark: another data set of the same source

| Binder | pERK Assay Results (AlphaLISA p-Erk1/2, HUVEC) |
| --- | --- |
| {CH2CO}-WWVDVKGVNYF[hTyr]DCG-NH2 (thioether N-14; also: homodimer: Lys6 joined to Lys6 of second copy by OCOPEG13OCO (Linker Structure No. 5)) [Peptide complex Dimer Structure No. 37] | ≥ 50 % activity at 100 nM |
| {CH2CO}-WW[Tle]DVKDDLY[F4C][hTyr]DCG-NH2 (thioether N-14; not fully specified (residue 6); reading uncertain; also: homodimer: Lys6 joined to Lys6 of second copy by cPEG17c (Linker Structure No. 4)) [Peptide complex Dimer Structure No. 30] | ≥ 50 % activity at 10 nM |
| {CH2CO}-WW[Tle]QVKDDLYF[hTyr]DCG-NH2 (thioether N-14; not fully specified (residue 6); also: homodimer: Lys6 joined to Lys6 of second copy by cPEG17c (Linker Structure No. 4)) [Peptide complex Dimer Structure No. 26] | ≥ 50 % activity at 100 nM |
| {CH2CO}-WW[Tle]DVKDDLYF[hTyr][F4aao]CG-NH2 (thioether N-14; reading uncertain; also: homodimer: Lys6 joined to Lys6 of second copy by cPEG17c (Linker Structure No. 4)) [Peptide complex Dimer Structure No. 35] | ≥ 50 % activity at 10 nM |
| {CH2CO}-WWV[Met(O2)]VKDDLYF[hTyr]DCG-NH2 (thioether N-14; also: homodimer: Lys6 joined to Lys6 of second copy by OCOPEG13OCO (Linker Structure No. 5)) [Peptide complex Dimer Structure No. 38] | ≥ 50 % activity at 100 nM |
| {CH2CO}-WW[Tle]DVKDDLYF[hTyr]FCG-NH2 (thioether N-14; also: homodimer: Lys6 joined to Lys6 of second copy by cPEG17c (Linker Structure No. 4)) [Peptide complex Dimer Structure No. 34] | ≥ 50 % activity at 10 nM |
| {CH2CO}-WW[Tle]DV[Ahp′]DDLYF[hTyr]DCG (thioether N-14; not fully specified (C-terminus); reading uncertain; also: dimer: Gly15 C-terminus joined to second copy by PEG12c-K-PEG12c (Linker Structure No. 1)) [Peptide complex Dimer Structure No. 36] | ≥ 50 % activity at 100 nM |
| {CH2CO}-WWVDVKDDLY[F4G][hTyr][Hyp]CG-NH2 (thioether N-14; also: homodimer: Lys6 joined to Lys6 of second copy by OCOPEG13OCO (Linker Structure No. 5)) [Peptide complex Dimer Structure No. 41] | ≥ 50 % activity at 10 nM |
| {CH2CO}-WW[Tle]DVKDD[Atb]Y[F4G][hTyr][Hyp]CG-NH2 (thioether N-14; reading uncertain; also: dimer: Lys6 joined to Lys6 of second copy by OCOPEG13OCO (Linker Structure No. 5)) [Peptide complex Dimer Structure No. 54] | ≥ 50 % activity at 5 nM |
| {CH2CO}-WW[hTyr]DVKDD[Atb]Y[F4G][hTyr]DCG-NH2 (thioether N-14; reading uncertain; also: dimer: Lys6 joined to Lys6 of second copy by OCOPEG13OCO (Linker Structure No. 5)) [Peptide complex Dimer Structure No. 57] | ≥ 50 % activity at 20 nM |
| {CH2CO}-WW[Tle]D[Chg]KDDLYF[hTyr]DCG-NH2 (thioether N-14; not fully specified (residue 6); also: homodimer: Lys6 joined to Lys6 of second copy by cPEG17c (Linker Structure No. 4)) [Peptide complex Dimer Structure No. 28] | ≥ 50 % activity at 10 nM |
| {CH2CO}-WW[Tle]DVKDD[Atb]YF[hTyr]DCG-NH2 (thioether N-14; reading uncertain; also: homodimer: Lys6 joined to Lys6 of second copy by cPEG17c (Linker Structure No. 4)) [Peptide complex Dimer Structure No. 48] | ≥ 50 % activity at 20 nM |
| {CH2CO}-WW[hTyr]DVKDD[Atb]Y[F4G]VDCG-NH2 (thioether N-14; reading uncertain; also: dimer: Lys6 joined to Lys6 of second copy by OCOPEG13OCO (Linker Structure No. 5)) [Peptide complex Dimer Structure No. 56] | ≥ 50 % activity at 20 nM |
| {CH2CO}-WW[Tle]DVK(CO(CH2)2(OCH2CH2)17CO)DDLYF[H4Py]DCG-NH2 (thioether N-14; reading uncertain; also: dimer joined at Lys6 side chains by cPEG17c) [Peptide complex Dimer Structure No. 32] | ≥ 50 % activity at 10 nM |
| {CH2CO}-WW[hTyr]DVKDDLY[F4G]VDCG-NH2 (thioether N-14; also: homodimer: Lys6 joined to Lys6 of second copy by OCOPEG13OCO (Linker Structure No. 5)) [Peptide complex Dimer Structure No. 40] | ≥ 50 % activity at 10 nM |
| {CH2CO}-WWVDVKDDLY[Yph]V[hArg]CG-NH2 (thioether N-14; reading uncertain; also: homodimer: Lys6 joined to Lys6 of second copy by OCOPEG13OCO (Linker Structure No. 5)) [Peptide complex Dimer Structure No. 39] | ≥ 50 % activity at 100 nM |
| {CH2CO}-WW[Tle]DVKDD[Atb]Y[F4G][hTyr]DCG-NH2 (thioether N-14; reading uncertain; also: dimer: Lys6 joined to Lys6 of second copy by OCOPEG13OCO (Linker Structure No. 5)) [Peptide complex Dimer Structure No. 55] | ≥ 50 % activity at 5 nM |
| {CH2CO}-WW[Tle]DVKDDLYF[hTyr]DCG-NH2 (thioether N-14; also: homodimer: Lys6 joined to Lys6 of second copy by cPEG17c (Linker Structure No. 4)) [Peptide complex Dimer Structure No. 44] | ≥ 50 % activity at 20 nM |
| {CH2CO}-WWVDVKDDLYFVDCG-NH2 (thioether N-14; also: homodimer: Lys6 joined to Lys6 of second copy by OCOPEG17OCO (Linker Structure No. 6)) [Peptide complex Dimer Structure No. 50] | ≥ 50 % activity at 20 nM |
